According to paper PMC4397020:

Molecular target: fibronectin (from human plasma) (human) (UniProt P02751)
Assay: ELISA; as the adhesion assay on coated substrate, over a range of protein concentrations; KD estimated with the xy analysis subprogram of GraphPad Prism v. 5

Chain of UniProt P02751 (P02751 other isoform, or with tags, fused parts or gaps, chain 1 of 2): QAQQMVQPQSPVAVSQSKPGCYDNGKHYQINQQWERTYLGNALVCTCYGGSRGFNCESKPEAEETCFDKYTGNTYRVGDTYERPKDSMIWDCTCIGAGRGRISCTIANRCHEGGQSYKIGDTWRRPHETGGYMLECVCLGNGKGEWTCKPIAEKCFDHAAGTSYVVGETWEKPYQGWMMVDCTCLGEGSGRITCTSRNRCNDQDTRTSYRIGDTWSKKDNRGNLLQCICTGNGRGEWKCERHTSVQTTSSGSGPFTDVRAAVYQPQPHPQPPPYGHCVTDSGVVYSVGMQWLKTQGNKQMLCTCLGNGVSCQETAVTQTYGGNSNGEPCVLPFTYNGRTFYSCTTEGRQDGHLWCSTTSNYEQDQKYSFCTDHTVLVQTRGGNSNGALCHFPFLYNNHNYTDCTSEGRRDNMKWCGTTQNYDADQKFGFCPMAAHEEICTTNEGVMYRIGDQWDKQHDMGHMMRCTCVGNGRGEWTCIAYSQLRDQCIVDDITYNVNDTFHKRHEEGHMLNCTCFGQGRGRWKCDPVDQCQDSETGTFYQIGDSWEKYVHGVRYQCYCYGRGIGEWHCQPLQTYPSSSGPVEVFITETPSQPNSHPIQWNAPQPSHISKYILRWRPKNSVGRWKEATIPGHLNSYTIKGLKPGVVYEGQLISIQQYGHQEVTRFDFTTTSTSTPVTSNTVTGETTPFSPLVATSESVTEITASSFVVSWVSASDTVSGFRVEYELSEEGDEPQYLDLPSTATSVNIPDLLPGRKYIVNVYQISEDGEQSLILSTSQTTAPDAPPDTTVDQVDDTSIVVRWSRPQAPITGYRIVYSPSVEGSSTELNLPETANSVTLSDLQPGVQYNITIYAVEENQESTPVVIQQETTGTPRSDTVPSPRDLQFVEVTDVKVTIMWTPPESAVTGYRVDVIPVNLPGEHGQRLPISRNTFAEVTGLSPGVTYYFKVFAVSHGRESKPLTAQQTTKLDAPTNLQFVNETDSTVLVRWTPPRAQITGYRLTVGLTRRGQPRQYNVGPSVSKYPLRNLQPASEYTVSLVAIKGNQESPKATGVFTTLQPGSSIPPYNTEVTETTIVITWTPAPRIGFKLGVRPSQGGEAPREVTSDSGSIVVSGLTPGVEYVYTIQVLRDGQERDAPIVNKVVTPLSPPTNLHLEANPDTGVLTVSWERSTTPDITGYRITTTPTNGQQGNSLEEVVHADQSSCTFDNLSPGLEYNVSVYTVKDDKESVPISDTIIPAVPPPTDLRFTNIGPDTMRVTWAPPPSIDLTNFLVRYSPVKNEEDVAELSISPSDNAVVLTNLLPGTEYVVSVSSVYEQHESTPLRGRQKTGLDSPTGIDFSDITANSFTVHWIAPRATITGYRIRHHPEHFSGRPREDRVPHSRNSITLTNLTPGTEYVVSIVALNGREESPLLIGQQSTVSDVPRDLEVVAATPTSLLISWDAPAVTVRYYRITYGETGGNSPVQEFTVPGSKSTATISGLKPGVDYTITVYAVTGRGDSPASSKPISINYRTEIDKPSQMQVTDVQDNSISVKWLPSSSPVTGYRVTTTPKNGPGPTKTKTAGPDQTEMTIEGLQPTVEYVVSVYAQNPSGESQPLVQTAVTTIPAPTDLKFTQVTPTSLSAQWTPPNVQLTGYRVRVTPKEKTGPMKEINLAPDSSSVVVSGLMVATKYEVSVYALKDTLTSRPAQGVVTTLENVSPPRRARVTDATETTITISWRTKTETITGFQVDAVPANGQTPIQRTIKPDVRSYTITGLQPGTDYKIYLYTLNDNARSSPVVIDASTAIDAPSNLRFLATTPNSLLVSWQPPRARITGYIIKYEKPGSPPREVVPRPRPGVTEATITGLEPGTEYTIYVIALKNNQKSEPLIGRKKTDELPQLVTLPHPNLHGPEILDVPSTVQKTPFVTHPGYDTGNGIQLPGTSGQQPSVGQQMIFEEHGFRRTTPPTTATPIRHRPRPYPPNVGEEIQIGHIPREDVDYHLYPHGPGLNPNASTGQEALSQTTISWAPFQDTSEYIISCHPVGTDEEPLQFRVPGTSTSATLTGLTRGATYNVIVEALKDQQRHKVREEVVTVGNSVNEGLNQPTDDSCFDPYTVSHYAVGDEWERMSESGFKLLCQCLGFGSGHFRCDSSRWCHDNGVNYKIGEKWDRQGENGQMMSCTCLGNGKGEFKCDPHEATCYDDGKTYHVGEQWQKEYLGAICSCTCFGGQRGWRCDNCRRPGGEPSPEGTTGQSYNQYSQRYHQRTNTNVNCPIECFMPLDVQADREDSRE
Chain of UniProt P02751 (P02751 other isoform, or with tags, fused parts or gaps, chain 2 of 2): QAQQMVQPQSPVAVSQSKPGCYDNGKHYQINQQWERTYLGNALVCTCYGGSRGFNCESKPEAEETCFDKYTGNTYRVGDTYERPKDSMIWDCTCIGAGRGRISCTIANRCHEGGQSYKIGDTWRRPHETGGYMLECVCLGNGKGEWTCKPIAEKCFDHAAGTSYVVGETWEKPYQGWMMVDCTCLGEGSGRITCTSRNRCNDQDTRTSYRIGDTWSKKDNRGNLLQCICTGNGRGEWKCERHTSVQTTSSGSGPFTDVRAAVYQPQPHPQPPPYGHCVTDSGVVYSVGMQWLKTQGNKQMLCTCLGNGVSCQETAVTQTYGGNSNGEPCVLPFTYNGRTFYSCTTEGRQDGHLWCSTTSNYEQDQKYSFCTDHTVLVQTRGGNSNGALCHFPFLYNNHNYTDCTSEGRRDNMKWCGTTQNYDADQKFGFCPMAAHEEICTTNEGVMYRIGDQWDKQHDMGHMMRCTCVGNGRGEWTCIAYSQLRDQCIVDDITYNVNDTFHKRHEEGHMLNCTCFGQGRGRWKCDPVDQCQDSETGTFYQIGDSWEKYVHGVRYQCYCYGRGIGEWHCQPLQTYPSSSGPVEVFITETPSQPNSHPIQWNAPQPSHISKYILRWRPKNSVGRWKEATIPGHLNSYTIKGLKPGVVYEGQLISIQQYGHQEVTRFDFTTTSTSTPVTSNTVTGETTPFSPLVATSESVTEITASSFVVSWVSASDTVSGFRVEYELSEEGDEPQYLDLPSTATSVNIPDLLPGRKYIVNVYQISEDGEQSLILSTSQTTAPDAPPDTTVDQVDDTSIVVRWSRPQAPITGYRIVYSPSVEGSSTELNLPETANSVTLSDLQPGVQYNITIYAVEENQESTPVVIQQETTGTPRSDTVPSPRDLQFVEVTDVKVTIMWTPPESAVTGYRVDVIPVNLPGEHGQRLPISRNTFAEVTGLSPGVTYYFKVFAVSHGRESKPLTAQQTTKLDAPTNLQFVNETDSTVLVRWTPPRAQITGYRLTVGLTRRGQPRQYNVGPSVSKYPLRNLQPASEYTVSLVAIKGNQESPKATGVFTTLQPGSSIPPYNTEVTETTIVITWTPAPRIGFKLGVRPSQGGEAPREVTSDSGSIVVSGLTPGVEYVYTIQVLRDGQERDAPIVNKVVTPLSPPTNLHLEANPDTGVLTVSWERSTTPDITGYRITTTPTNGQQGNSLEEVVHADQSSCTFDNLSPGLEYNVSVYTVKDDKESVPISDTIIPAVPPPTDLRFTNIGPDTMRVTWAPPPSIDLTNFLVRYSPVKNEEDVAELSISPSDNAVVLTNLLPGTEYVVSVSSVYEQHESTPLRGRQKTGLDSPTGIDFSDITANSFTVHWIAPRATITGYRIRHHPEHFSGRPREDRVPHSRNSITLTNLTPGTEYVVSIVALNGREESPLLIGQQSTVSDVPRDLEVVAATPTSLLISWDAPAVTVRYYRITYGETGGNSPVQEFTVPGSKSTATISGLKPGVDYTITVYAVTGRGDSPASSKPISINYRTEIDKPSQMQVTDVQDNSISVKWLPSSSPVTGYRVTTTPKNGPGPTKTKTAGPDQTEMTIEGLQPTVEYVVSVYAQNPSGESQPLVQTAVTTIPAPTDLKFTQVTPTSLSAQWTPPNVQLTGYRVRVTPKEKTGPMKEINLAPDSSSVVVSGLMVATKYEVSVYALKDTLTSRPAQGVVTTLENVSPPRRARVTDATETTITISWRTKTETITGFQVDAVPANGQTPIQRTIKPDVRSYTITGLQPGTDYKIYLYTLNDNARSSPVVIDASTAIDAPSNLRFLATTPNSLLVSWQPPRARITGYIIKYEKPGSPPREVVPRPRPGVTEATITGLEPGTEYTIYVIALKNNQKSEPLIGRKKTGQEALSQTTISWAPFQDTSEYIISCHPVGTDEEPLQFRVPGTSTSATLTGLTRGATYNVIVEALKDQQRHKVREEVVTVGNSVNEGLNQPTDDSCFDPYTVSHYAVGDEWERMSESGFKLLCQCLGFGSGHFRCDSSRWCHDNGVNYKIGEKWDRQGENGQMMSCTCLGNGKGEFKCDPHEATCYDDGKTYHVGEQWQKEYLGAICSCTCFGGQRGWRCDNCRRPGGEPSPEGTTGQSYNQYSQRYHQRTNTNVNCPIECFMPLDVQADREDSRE

MBP-OmpL1 (natural protein)
Kd: 870 nM
